{"source": "patent US20220235380", "proteins": {"B1": {"name": "Alkaline Phosphatase, Germ Cell (ALPG), expressed on engineered K562 cells (protein)", "chain": "IIPVEEENPDFWNRQAAEALGAAKKLQPAQTAAKNLIIFLGDGMGVSTVTAARILKGQKKDKLGPETFLAMDRFPYVALSKTYSVDKHVPDSGATATAYLCGVKGNFQTIGLSAAARFNQCNTTRGNEVISVMNRAKKAGKSVGVVTTTRVQHASPAGAYAHTVNRNWYSDADVPASARQEGCQDIATQLISNMDIDVILGGGRKYMFPMGTPDPEYPDDYSQGGTRLDGKNLVQEWLAKHQGARYVWNRTELLQASLDPSVTHLMGLFEPGDMKYEIHRDSTLDPSLMEMTEAALLLLSRNPRGFFLFVEGGRIDHGHHESRAYRALTETIMFDDAIERAGQLTSEEDTLSLVTADHSHVFSFGGYPLRGSSIFGLAPGKARDRKAYTVLLYGNGPGYVLKDGARPDVTESESGSPEYRQQSAVPLDGETHAGEDVAVFARGPQAHLVHGVQEQTFIAHVMAFAACLEPYTACDLAPRAGTTD"}}, "target": "ALPG/P priming receptor encoded by the LG1 + FAS/PTPN2 shRNA circuits AB-1013, AB-1014 and AB-1015", "sequence (chain, as listed by the source)": "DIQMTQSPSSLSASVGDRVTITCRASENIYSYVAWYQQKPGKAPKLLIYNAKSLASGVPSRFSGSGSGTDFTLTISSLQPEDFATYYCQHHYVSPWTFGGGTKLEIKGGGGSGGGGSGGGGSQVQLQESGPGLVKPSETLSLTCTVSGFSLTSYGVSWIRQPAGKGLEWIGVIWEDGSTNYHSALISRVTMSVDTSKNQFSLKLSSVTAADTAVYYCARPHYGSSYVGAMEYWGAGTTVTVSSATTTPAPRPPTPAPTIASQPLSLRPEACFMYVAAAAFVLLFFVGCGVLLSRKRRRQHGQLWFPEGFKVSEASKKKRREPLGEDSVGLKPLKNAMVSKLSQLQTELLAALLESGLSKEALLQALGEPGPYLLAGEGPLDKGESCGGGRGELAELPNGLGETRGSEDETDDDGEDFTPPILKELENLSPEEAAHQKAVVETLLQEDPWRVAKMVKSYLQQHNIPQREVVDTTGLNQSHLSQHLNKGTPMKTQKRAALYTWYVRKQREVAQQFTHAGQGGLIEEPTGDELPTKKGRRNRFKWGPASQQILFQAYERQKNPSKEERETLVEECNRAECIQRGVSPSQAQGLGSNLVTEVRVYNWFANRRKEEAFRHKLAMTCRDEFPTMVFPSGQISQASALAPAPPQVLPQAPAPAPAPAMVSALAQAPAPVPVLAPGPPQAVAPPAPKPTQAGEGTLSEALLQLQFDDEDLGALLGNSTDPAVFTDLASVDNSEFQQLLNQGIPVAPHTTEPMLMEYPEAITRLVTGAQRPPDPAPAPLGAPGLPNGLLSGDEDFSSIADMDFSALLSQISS", "data": [{"protein": "B1", "values": [{"measurement": "% CAR Conversion, time to peak", "value": "reached a peak after around 100 hours of stimulation with the PrimeR antigen"}]}]}
